Data as given in patent US8822165B2, “Method for producing cAMP using chimeric olfactory receptor” (Panasonic Corporation, priority 2010, dated 2014).

B1: Rho-mOREG: mouse olfactory receptor for eugenol with N-terminal Rho tag (protein)
chain: MNGTEGPNFYVPFSNKTGVVMTLSDGNHSGAVFTLLGFSDYPELTIPLFLIFLTIYSITVVGNIGMIVIIRINPKLHIPMYFFLSHLSFVDFCYSSIVAPKMLVNLVTMNRGISFVGCLVQFFFFCTFVVTESFLLGVMAYDRFVAIRNPLLYTVAMSQRLCAMLVLGSYAWGVVCSLILTCSALNLSFYGFNMINHFFCEFSSLLSLSRSDTSVSQLLLFVFATFNEISTLLIILLSYVLIVVTILKMKSASGRRKAFSTCASHLTAITIFHGTILFLYCVPNSKNSRHTVKVASVFYTVVIPMLNPLIYSLRNKDVKDTVKKIIGTKVYSS
modifications: Rho-mOREG
notes: mouse olfactory receptor for eugenol with N-terminal Rho tag
B2: chimera2: EC1-IC1 domains of the β1AR, TM2-TM7 domains of the mOREG, IC4 domain of the β1AR (protein)
chain: MGAGALALGASEPCNLSSAAPLPDGAATAARLLVLASPPASLLPPASEGSAPLSQQWTAGMGLLLALIVLLIVVGNVLVIVAIAKTPRLQTLTNLTRPMYFFLSHLSFVDFCYSSIVAPKMLVNLVTMNRGISFVGCLVQFFFFCTFVVTESFLLGVMAYDRFVAIRNPLLYTVAMSQRLCAMLVLGSYAWGVVCSLILTCSALNLSFYGFNMINHFFCEFSSLLSLSRSDTSVSQLLLFVFATFNEISTLLIILLSYVLIVVTILKMKSASGRRKAFSTCASHLTAITIFHGTILFLYCVPNSKNSRHTVKVASVFYTVVIPMLNPLIYSLRNKSRDFRKAFQRLLCCARRAACRRRAAHGDRPRASGCLARAGPPPSPGAPSDDDDDDAGATPPARLLEPWAGCNGGTTTVDSDSSLDEPGRQGFSSESKV
modifications: chimera 2
B3: chimera1: IC4 domain of the Rho-myc-mOREG is substituted with the IC4 domain of the beta-1 adrenergic receptor (protein)
chain: MNGTEGPNFYVPFSNKTGVVEQKLISEEDLEFMTLSDGNHSGAVFTLLGFSDYPELTIPLFLIFLTIYSITVVGNIGMIVIIRINPKLHIPMYFFLSHLSFVDFCYSSIVAPKMLVNLVTMNRGISFVGCLVQFFFFCTFVVTESFLLGVMAYDRFVAIRNPLLYTVAMSQRLCAMLVLGSYAWGVVCSLILTCSALNLSFYGFNMINHFFCEFSSLLSLSRSDTSVSQLLLFVFATFNEISTLLIILLSYVLIVVTILKMKSASGRRKAFSTCASHLTAITIFHGTILFLYCVPNSKNSRHTVKVASVFYTVVIPMLNPLIYSLRNKDFRKAFQRLLCCARRAACRRRAAHGDRPRASGCLARAGPPPSPGAPSDDDDDDAGATPPARLLEPWAGCNGGTTTVDSDSSLDEPGRQGFSSESKV
modifications: chimera 1
notes: IC4 domain of the Rho-myc-mOREG is substituted with the IC4 domain of the beta-1 adrenergic receptor
B4: Rho-myc-mOREG: mouse olfactory receptor for eugenol with N-terminal Rho tag and myc epitope tag (protein)
chain: MNGTEGPNFYVPFSNKTGVVEQKLISEEDLEFMTLSDGNHSGAVFTLLGFSDYPELTIPLFLIFLTIYSITVVGNIGMIVIIRINPKLHIPMYFFLSHLSFVDFCYSSIVAPKMLVNLVTMNRGISFVGCLVQFFFFCTFVVTESFLLGVMAYDRFVAIRNPLLYTVAMSQRLCAMLVLGSYAWGVVCSLILTCSALNLSFYGFNMINHFFCEFSSLLSLSRSDTSVSQLLLFVFATFNEISTLLIILLSYVLIVVTILKMKSASGRRKAFSTCASHLTAITIFHGTILFLYCVPNSKNSRHTVKVASVFYTVVIPMLNPLIYSLRNKDVKDTVKKIIGTKVYSS
modifications: Rho-myc-mOREG

Legend:
HEK293T cells [1] = assay: cAMP production by mOREG-derived receptors expressed in HEK293T cells, eugenol as agonist (Experiment 1); assay type: cell-based
Method: Subsequently, the HEK293T cells were transfected with the above-mentioned three plasmids by a lipofection method. The HEK293T cells were incubated for 48 hours, and the β1AR consisting of the protein represented by SEQ ID NO: 03 was expressed on the cell membrane of the HEK293T cell.
The abbreviation “IBMX” means 3-isobutyl-1-methylxanthine. The IBMX is one of the phosphodiesterase inhibitors. The IBMX stabilizes cAMP, which is unstable.
The expression was conducted similarly to that of the step 2 of the reference example 1 except that the plasmid (Rho-mOREG) was used instead of the plasmid (β1AR). In this way, the Rho-mOREG (SEQ ID NO: 34) was expressed on a cell membrane.
Based on the measured cAMP concentration, a concentration increase value was calculated in accordance with the following equation: (Concentration increase value)=(the cAMP concentration measured when the concentration of the eugenol was 300μM)−(the cAMP concentration measured when the concentration of the eugenol was 0 μM)

HEK293T cells [2] = assay: as above; assay type: cell-based; remark: listed apart in the source

Molecule	cAMP concentration (HEK293T cells [1]; eugenol 0 μM)	concentration increase value of the cAMP (HEK293T cells [1]; eugenol 300 μM (Table 5))	concentration increase value of the cAMP (HEK293T cells [2]; eugenol 30 μM)	concentration increase value of the cAMP (HEK293T cells [2]; eugenol 1000 μM)	concentration increase value of the cAMP (HEK293T cells [1]; eugenol 300 μM minus eugenol 0 μM)	concentration increase value compared with the other olfactory receptors derived from the mOREG (in words) (HEK293T cells [1]; eugenol 300 μM, Table 4)	concentration increase value of the cAMP compared with the other olfactory receptors (in words) (HEK293T cells [2]; regardless of the concentration of eugenol, Table 5)
B1	0.00633 pmol/µg	0.0018	0.0012	0.0026	–	–	–
B2	–	–	–	–	0.0002 pmol/microgram	–	–
B3	–	0.018	0.0065	0.031	–	much greater	greater
B4	–	0.0060	0.0028	0.0190	–	–	–
